“Also recorded” adds a separate entry of the source.

The values below come from patent US9828641B2, “Systemic genotoxicity as blood marker for allergic inflammation” (The Regents of the University of California, priority 2013, dated 2017).

In data set [1] the test system is peripheral leukocytes. In words: Alkaline comet assay with and without hOgg1 incubation. The format is in vivo. Particulars: wildtype mice, single tail vein injection; for Time of maximum DNA damage to peripheral leukocytes: TNF-α 500 ng or IL-β 100 ng alone; for Time to repair of DNA damage in peripheral leukocytes: TNF-α 500 ng/mouse or IL-β 100 ng/mouse alone. As for the experimental part: Frozen blood was further diluted 1:15 in PBS before further preparation.
The enzyme hOgg1-modified comet assay was used for determination of oxidative DNA damage (25). Following lysis, samples were washed in an enzyme wash buffer (40 mM HEPES, 0.1M KCl, 0.5 mM EDTA, 0.2 mg/ml BSA, pH 8.0) then incubated at 37° C. for 10 min in either control (buffer with no hOGG1) or enzyme treated (buffer with hOGG1) solutions according to the manufacturer's recommendations. (New England Biolabs, Ipswich, Mass.). Both control and enzyme treated gels were then placed in electrophoresis buffer and processed identically to the alkaline comet assay.
The enzyme hOgg1-modified comet assay was used and carried out identically as previously described (1).
For determination of oxidative DNA damage the enzyme hOgg1-modified comet assay was used (5). After lysis in the alkaline comet assay, samples were washed in an enzyme wash buffer (40 mM HEPES, 0.1M KCl, 0.5 mM EDTA, 0.2 mg/ml BSA, pH 8.0) then incubated at 37° C. for 10 min in either control (buffer with no hOGG1) or enzyme treated (buffer with hOGG1) solutions according to the manufacturer's recommendations (New England Biolabs, Ipswich, Mass.). Both control and enzyme treated gels were then placed in electrophoresis buffer and processed identically to the alkaline comet assay.
Control animals received vehicle only.

Data set [2] deals with normochromatic erythrocytes. Put plainly: In vivo micronucleus assay. Particulars: wildtype mice, 48 hours post-injection.
Description: Micronuclei (MN) formation was determined in peripheral blood erythrocytes to assess chromosomal instability. Similar to a previously proposed method (28), 3 μl of whole blood was spread on a microscope slide and stained in Modified Wright-Giemsa solution (Sigma-Aldrich, St. Louis, Mo.). MN were counted and scored with an Olympus Ax70 (Tokyo, Japan) at 100× following previously proposed criteria (29). At least 4000 mature erythrocytes were counted per mouse, and the frequency of MN formation was calculated as number of micronucleated erythrocytes per 1000 normochromatic erythrocytes.
Micronucleus formation was determined in normochromatic erythrocytes as micronucleated normochromatic erythrocytes per 1000 normochromatic erythrocytes as described previously (1, 8).
Mouse TNF-α (Sigma) and/or mouse IL-1β (Sigma) were injected via the tail vein at 500 ng/mouse and 100 ng/mouse, respectively, dissolved in saline. Control animals received vehicle only. Peripheral blood was collected at 1 hr, 2 hrs, 4 hrs, and 24 hrs after injection for genotoxicity assays.
For data set [3] the following is noted: literature statement; cited from earlier work.
Data set [4] relates to peripheral leukocytes. Put plainly: γ-H2AX immunofluorescence (DNA double strand breaks). The following applies: 3% DSS. The format is in vivo, mice.
Description: Peripheral blood was incubated in Buffer EL (Qiagen, Valencia, Calif.) on ice to remove erythrocytes. Samples were then processed on coverslips essentially as described elsewhere (26). […] Coverslips were mounted with [sequence] with 4,6-diamidino-2-phenylindole (Vector Laboratories, Burlingame, Calif.). Images were captured with CytoVision® (Applied Imaging Corporation, San Jose, Calif.) connected to a Zeiss Axioplan 2 microscope. At least 125 cells were counted and cells with more than four distinct foci in the nucleus were considered positive for γ-H2AX (26). Apoptotic cells, which are distinguishable due to presence of 10-fold the number of nuclear foci in damaged cells (27), were not included in analyses.
Peripheral blood and splenocytes were incubated in Buffer EL (Qiagen, Valencia, Calif.) on ice to remove erythrocytes. […] Samples were then processed on coverslips as described elsewhere (6). Briefly, after permeabilization and blocking, cells were incubated with mouse anti-phospho-Histone H2A.X S139(P) (Upstate, Temecula, Calif.) at 1:400 followed by FITC-conjugated anti-mouse IgG (Jackson ImmunoResearch, West Grove, Pa.) at 1:200. Coverslips were mounted with [sequence] with 4,6-diamidino-2-phenylindole (Vector Laboratories, Burlingame, Calif.). […] At least 125 cells were counted and cells with more than four distinct foci in the nucleus were considered positive (6). […]
For data set [5], the system named is TNF-α, MCP-1, IFN-γ, TGF-β transcripts. Put plainly: Quantitative real-time PCR of cytokines in peripheral blood. Particulars: 3% DSS, particularly after the first cycle. The format is in vivo, mice. As for the experimental part: Total RNA was isolated using QiaAmp RNA Blood Mini Kit (Qiagen) according to manufacturer's instructions. 25 ng/μl of total RNA was used for reverse transcription using OligodT (Invitrogen) and Superscript III Reverse Transcriptase (Invitrogen). 10 ng/μl of cDNA was used for quantitative real time PCR using Taqman Gene Expression Assays (Applied Biosystems, Foster City, Calif. p/n 4331182) for Tbp (TATA binding protein), TNF-α (tumor necrosis factor α), MCP-1 (monocyte chemoattractant protein 1, also known as CC chemokine ligand 2, CCL2), IFN-γ (interferon γ), TGF-β ([…]) and Taqman Gene Expression Master Mix according to manufacturer's instructions on the ABI Prism 7500 sequence detection system (Applied Biosystems). Tbp was chosen as the endogenous control due to its low variability and low to medium relative abundance in terms of expression in blood (30). Each measurement was performed in triplicate and results were analyzed using SDS 2.2.1 software (Applied Biosystems). Gene expression was determined using the relative standard curve method normalized to Tbp expression.
Background: In qPCR the cycle at which signal appears reflects the starting amount.

TNF-α: in the data set on peripheral leukocytes [1] (TNF-α 500 ng/mouse), the “Onset of DNA damage to peripheral leukocytes (comet and γ-H2AX)” value is 1 hour post-injection; the “Time until which DNA damage remained elevated” value is given as “approximately 4 hours post-injection”. Moreover, in the data set on peripheral leukocytes [1], the “Time of maximum DNA damage to peripheral leukocytes” value came to 1 hours post-injection and the “Time to repair of DNA damage in peripheral leukocytes” value is not above 24 hours post-injection. In addition, in data set [2], the “Micronuclei formation in normochromatic erythrocytes vs before injection” value is listed as “minimally yet significantly elevated”.

For dextran sulfate sodium [DSS], in data set [3], the Direct mutagenicity/genotoxicity entry is “not a mutagen nor genotoxic; also recorded: not directly genotoxic”. For the same molecule, the “Percentage of cells positive for γ-H2AX nuclear foci vs non-treated” value with peripheral leukocytes [4] (after first 7 day acute treatment, p<0.01) is “increased dramatically”. Also, the “Percent γ-H2AX positive cells vs non-treated, chronic phase” value in the data set with peripheral leukocytes [4] (until end of treatment, p<0.05) is “remained elevated over non-treated animals”. Besides, in data set [5], the “Cytokine mRNA expression in peripheral blood” value was “up-regulation of TNF-α, MCP-1 (CCL2), and IFN-γ”.

B1: IL-β: Recombinant mouse IL-1β (Sigma), injected via the tail vein at 100 ng/mouse (protein, UniProt P10749 118-269, looked up)
Interleukin-1 beta: VPIRQLHYRLRDEQQKSLVLSDPYELKALHLNGQNINQQVIFSMSFVQGEPSNDKIPVALGLKGKNLYLSCVMKDGTPTLQLESVDPKQYPKKKMEKRFVFNKIEVKSKVEFESAEFPNWYISTSQAEHKPVFLGNNSGQDIIDFTMESVSS
As to B1, in the data set with peripheral leukocytes [1], the “Time of maximum DNA damage to peripheral leukocytes” value was 4 hours post-injection and the “Time to repair of DNA damage in peripheral leukocytes” value is reported as not above 24 hours post-injection.
